The results in this text go back to paper PMC6773860.

The target in test [1] is His6-tagged junctional adhesion molecule A (UniProt Q9Y624). Description: single-virus force spectroscopy (FD-based AFM); virus particles on the AFM tip through a PEG27 linker; His6-JAM-A on an NTA-Ni2+ gold model surface; virus buffer, ~25 °C; after adding 1 mM Neu5Ac; koff of the single bond from a Bell-Evans fit of the DFS plot.
Test [2] addresses His6-tagged JAM-A (junctional adhesion molecule A) (UniProt Q9Y624). Description: single-virus force spectroscopy (FD-based AFM); as a1, after injection of 1 mM sialylated glycan (Neu5Ac or LSTa).
The target of test [3] is human JAM-A on the surface of Lec2-JAM-A cells (human) (UniProt Q9Y624). In words: single-virus force spectroscopy (FD-based AFM); as a4, the same area scanned again after adding 1 mM LNnT to the culture medium.
Test [4] shares this target. In words: single-virus force spectroscopy (FD-based AFM); virions on the AFM tip; living Lec2-JAM-A cells co-cultured with fluorescent Lec2 cells; PeakForce QNM mode, 37 °C, culture medium, 5% CO2; no glycan added.
The target is the same in test [5]. Description: single-virus force spectroscopy (FD-based AFM); as a4, the same area scanned again after adding 1 mM Neu5Ac or 1 mM LSTa to the culture medium; also on cells treated before with neuraminidase (40 mUnit/mL, 1 h).
For test [6], the target named is His6-tagged JAM-A (junctional adhesion molecule A) (UniProt Q9Y624). In words: single-virus force spectroscopy (FD-based AFM); virions or ISVPs covalently linked by a PEG27 spacer to the AFM tip; His6-JAM-A immobilised on an NTA-Ni2+ gold surface; virus buffer (150 mM NaCl, 15 mM MgCl2, 10 mM Tris pH 7.4), ~25 °C; single bonds fitted with the Bell-Evans model; no glycan added.

For test [7], the target named is His6-tagged junctional adhesion molecule A (UniProt Q9Y624). Description: single-virus force spectroscopy (FD-based AFM); virus particles on the AFM tip through a PEG27 linker; His6-JAM-A on an NTA-Ni2+ gold model surface; virus buffer, ~25 °C; after adding 1 mM LSTa; koff of the single bond from a Bell-Evans fit of the DFS plot.
Test [8] shares this target. In words: single-virus force spectroscopy (FD-based AFM); virus particles on the AFM tip through a PEG27 linker; His6-JAM-A on an NTA-Ni2+ gold model surface; virus buffer, ~25 °C; after adding 1 mM LNnT (no sialic acid); koff of the single bond from a Bell-Evans fit of the DFS plot.

By koff is commonly meant the first-order rate constant of dissociation. A higher koff goes with fast dissociation. Turning to “reovirus σ1 attachment protein on T3SA+ infectious subvirion particles (from UniProt P03528 1-455) (natural protein)”, in test [1], the koff was 0.18 s⁻¹.
“reovirus σ1 attachment protein of strain T3SA+, on purified virions (from UniProt P03528 1-455) (natural protein)”: in test [2], the overall binding force with 1 mM Neu5Ac or LSTa is under 400 pN and the simultaneous virus-receptor bonds in the presence of α-SA is under 3. In addition, the binding frequency after 1 mM LNnT in test [3] amounted to 3.9%. In test [4], this substance registered a binding frequency before LNnT of 3.8%, a binding frequency before LSTa of 3.8%, a binding frequency before Neu5Ac of 3.9% and a density of adhesion events of 3.5%. Also, in test [4], the rupture force lay within 50 to 400 pN and the simultaneous virus-receptor bonds was under 4. Besides, in test [5], the binding frequency after 1 mM LSTa is 4.8%; the binding frequency after 1 mM Neu5Ac is 4.9%; the increase in binding after Neu5Ac against before, neuraminidase-treated cells worked out at 20%. In addition, in test [6], the dissociation rate constant (koff) was determined as 0.04 s⁻¹ and the specific binding force lay in the range of 20 to 130 pN.
With “reovirus σ1 attachment protein on T3SA- virions (P204L) (from UniProt P03528 1-455)”, the koff in test [7] came out at 0.24 s⁻¹; in test [1], 0.08 s⁻¹; in test [8], 0.07 s⁻¹.
“reovirus σ1 attachment protein of mutant strain T3SA− (P204L), on purified virions (from UniProt P03528 1-455) (natural protein)” returned a frequency of adhesion events in test [4] of 4%. In test [6], this substance yielded a koff of 0.05 s⁻¹ and a specific binding force of 20 to 130 pN.
